{"source": "patent US7273618B2", "about": "“Method for administering agents to the central nervous system” (Chiron Corporation, priority 1998, dated 2007)", "type_in_all_cases": "in vivo, Sprague-Dawley rats", "conditions_in_all_cases": "rat, 7.4 nmol", "key": {"[1]": {"assay": "Conjunctival administration (lower eyelid) of 125I-IGF-I, tissue distribution by gamma counting"}, "[2]": {"assay": "Transdermal administration (skin of the face) of 125I-IGF-I, tissue distribution by gamma counting", "method": "Male Sprague-Dawley rats, 200-310 grams, are anesthetized with intraperitoneal pentobarbital (40 mg/kg). Drug delivery to the brain and spinal cord was assessed after transdermal administration of 7.4 nmol of ^125I-IGF-I in phosphate buffered saline, pH 7.4. Rats are placed in on their bellies with posterior elevated and mouth lowered. ^125I-IGF-I (7.4 nmol) placed on the skin of the rat's face. Rats subsequently underwent perfusion-fixation within minutes following the completion of ^125I-IGF-I administration. Perfusion-fixation was performed with 50-100 ml physiologic saline followed by 500 ml of fixative containing 1.25% glutaraldehyde and 1% paraformaldehyde in 0.1 M Sorenson's phosphate buffer, pH 7.4, prior to dissection and ^125I measurement by gamma counting. Areas dissected included selected brain regions as well as the cervical, thoracic and sacral regions of the spinal cord."}, "[3]": {"assay": "Sublingual administration of 125I-IGF-I, tissue distribution by gamma counting", "method": "Male Sprague-Dawley rats, 200-310 grams, were anesthetized with intraperitoneal pentobarbital (40 mg/kg). Drug delivery to the brain and spinal cord was assessed after sublingual administration of 7.4 nmol of ^125I-IGF-I in phosphate buffered saline, pH 7.4. Rats were placed in on their bellies with posterior elevated and mouth lowered. ^125I-IGF-I (7.4 nmol) on a small strip of filter paper was placed under the tongue. Such methods for sublingual administration are known in the art. Purushotham et al. Am J. Physiol. 269,G867-G873 (1995). Rats subsequently underwent perfusion-fixation within minutes following the completion of ^125I-IGF-I administration. Perfusion-fixation was performed with 50-100 ml physiologic saline followed by 500 ml of fixative containing 1.25% glutaraldehyde and 1% paraformaldehyde in 0.1 M Sorenson's phosphate buffer, pH 7.4, prior to dissection and ^125I measurement by gamma counting. Areas dissected included selected brain regions as well as the cervical, thoracic and sacral regions of the spinal cord."}}}
{"substance": "125I-IGF-I: insulin-like growth factor I, a single chain peptide having 70 amino acids and a molecular weight of about 7,600 daltons, radioiodinated", "values": [{"measurement": "appearance of neurologic agent in the brain and spinal cord (radioactivity)", "setting": "[1]", "result": "Rapid appearance"}, {"measurement": "appearance of neurologic agent in the brain and spinal cord (radioactivity)", "setting": "[2]", "result": "Rapid appearance"}, {"measurement": "concentration in meninges or dura surrounding olfactory bulb, dorsal and ventral regions of the brain, trigeminal nerve and upper cervical spinal cord", "setting": "[3]", "result": "High concentrations"}, {"measurement": "concentration in the trigeminal nerve itself", "setting": "[3]", "result": "high concentrations"}, {"measurement": "presence in the olfactory bulb, spinal cord and brain stem", "setting": "[3]", "result": "found"}, {"measurement": "concentration of neurologic agent in spinal cord regions (comparison)", "setting": "[3]; cervical, thoracic, lumbar or sacral regions", "result": "higher in the cervical region of the spinal cord than in the thoracic region and higher in the thoracic region than in the lumbar or sacral regions"}, {"measurement": "appearance of neurologic agent in the brain and spinal cord (radioactivity)", "setting": "[3]; perfusion-fixation within minutes after administration", "result": "Rapid appearance"}]}
